According to the supplement of paper PMC10567573:

B1: MFF (parent)
chain: DDLTVVDAASLRRQIIKLNRRLQL
B2: TRIM63 (parent)
chain: QEKKLSFIEALIQQYQEQLDKSTK
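Further: lentivirally expressed fusions sorted by FACS into six bins by GFP to DsRed ratio, PSI derived from sequencing read proportions per bin multiplied by bin number.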

Variants of: B1
Assay: protein stability index of a GFP-peptide fusion (GPS, HEK-293T) (PSI 1-6); higher = more stable
Conditions: c terminus: a fixed tail appended
In the case of DDLTVVDAASLRRQDIKLNRRLQL [I15D], the protein stability index is reported as 3.96. With DDLTVVDAASLRRQGIKLNRRLQL [I15G] the protein stability index was 3. In the case of DDLQVVDAASLRRQIIKLNRRLQL [T4Q], the protein stability index is reported as 2.32. DDLVVVDAASLRRQIIKLNRRLQL [T4V] showed a protein stability index of 1.96. In the case of DDLAVVDAASLRRQIIKLNRRLQL [T4A], the protein stability index is reported as 1.91. CDLTVVDAASLRRQIIKLNRRLQL [D1C] gave a protein stability index of 2.04. KDLTVVDAASLRRQIIKLNRRLQL [D1K] showed a protein stability index of 1.84. Work on SDLTVVDAASLRRQIIKLNRRLQL [D1S] yielded a protein stability index of 2.28. Variant DDLTVVDAASDRRQIIKLNRRLQL [L11D] has a protein stability index of 3.79. For DDLTVVDAASRRRQIIKLNRRLQL [L11R], the protein stability index was 3.91. For DDLTVVDAASCRRQIIKLNRRLQL [L11C], the protein stability index was 2.16. Work on DDLTVVDAASLRRQIIKLNRRLIL [Q23I] yielded a protein stability index of 2.14. Variant DDLTVVDAASLRRQIIKLNRRLNL [Q23N] has a protein stability index of 2.31. In the case of DDLTVVDAASLRRQIIKLNYRLQL [R20Y], the protein stability index is reported as 1.74. DDLTVVDAASLRRQIIKLNNRLQL [R20N] showed a protein stability index of 2.4. In the case of DDLTVVDAASLRRQIIKLNVRLQL [R20V], the protein stability index is reported as 1.9. DDLTVVDAASLRRQIHKLNRRLQL [I16H] showed a protein stability index of 2.26. DDLTVVDAASLRRQICKLNRRLQL [I16C] gave a protein stability index of 1.69. In the case of DDLTVHDAASLRRQIIKLNRRLQL [V6H], the protein stability index is reported as 2.71. In the case of DDLTVEDAASLRRQIIKLNRRLQL [V6E], the protein stability index is reported as 2.08. Variant DDLTVGDAASLRRQIIKLNRRLQL [V6G] has a protein stability index of 3.34. In the case of DDLTVVDAASLRRQIIKLNRRLQG [L24G], the protein stability index is reported as 2.56. In the case of DDLTVVDAASLRRQIIKLPRRLQL [N19P], the protein stability index is reported as 2.33. With DDLTVVDAASLRRQIIKLQRRLQL [N19Q] the protein stability index was 2.01. DDYTVVDAASLRRQIIKLNRRLQL [L3Y] showed a protein stability index of 1.96. Work on DDITVVDAASLRRQIIKLNRRLQL [L3I] yielded a protein stability index of 1.8. With DDLTVVDAASLRAQIIKLNRRLQL [R13A] the protein stability index was 2.88. Variant DDLTVVDAASLRTQIIKLNRRLQL [R13T] has a protein stability index of 1.85. For DDLTVVDAASLRYQIIKLNRRLQL [R13Y], the protein stability index was 1.7. With DDLTVVDAASLRRQIIKLNRRHQL [L22H] the protein stability index was 2.95. For DDLTVVDATSLRRQIIKLNRRLQL [A9T], the protein stability index was 1.82. In the case of DDLTVVDALSLRRQIIKLNRRLQL [A9L], the protein stability index is reported as 2.08. Variant DDLTVVDAGSLRRQIIKLNRRLQL [A9G] has a protein stability index of 2.11. DDLTVVDAASLRRQIIKLNRFLQL [R21F] showed a protein stability index of 2.33. With DDLTVVKAASLRRQIIKLNRRLQL [D7K] the protein stability index was 1.89. DDLTVVDDASLRRQIIKLNRRLQL [A8D] showed a protein stability index of 2.8. With DDLTVVDSASLRRQIIKLNRRLQL [A8S] the protein stability index was 2.49. DDLTVVDAATLRRQIIKLNRRLQL [S10T] gave a protein stability index of 1.61. For DDLTVVDAACLRRQIIKLNRRLQL [S10C], the protein stability index was 1.48. DDLTVVDAAILRRQIIKLNRRLQL [S10I] showed a protein stability index of 1.72. DDLTVVDAAELRRQIIKLNRRLQL [S10E] showed a protein stability index of 2.13. Variant DWLTVVDAASLRRQIIKLNRRLQL [D2W] has a protein stability index of 2.86. With DELTVVDAASLRRQIIKLNRRLQL [D2E] the protein stability index was 1.72. DVLTVVDAASLRRQIIKLNRRLQL [D2V] showed a protein stability index of 1.13. For DNLTVVDAASLRRQIIKLNRRLQL [D2N], the protein stability index was 2.22. For DDLTVVDAASLRRGIIKLNRRLQL [Q14G], the protein stability index was 2.5. With DDLTVVDAASLRRIIIKLNRRLQL [Q14I] the protein stability index was 2.3. Variant DDLTVVDAASLRRQIIQLNRRLQL [K17Q] has a protein stability index of 1.57. Variant DDLTVVDAASLRRQIIHLNRRLQL [K17H] has a protein stability index of 2.08. For DDLTVVDAASLRRQIIPLNRRLQL [K17P], the protein stability index was 3.72. Variant DDLTKVDAASLRRQIIKLNRRLQL [V5K] has a protein stability index of 2.47. With DDLTLVDAASLRRQIIKLNRRLQL [V5L] the protein stability index was 1.69. With DDLTIVDAASLRRQIIKLNRRLQL [V5I] the protein stability index was 2.66. DDLTVVDAASLWRQIIKLNRRLQL [R12W] gave a protein stability index of 1.92. With DDLTVVDAASLIRQIIKLNRRLQL [R12I] the protein stability index was 1.23. For DDLTVVDAASLNRQIIKLNRRLQL [R12N], the protein stability index was 2.42. DDLTVVDAASLRRQIIKMNRRLQL [L18M] gave a protein stability index of 2.38.

Variants of: B2
Assay: as above
Conditions: c terminus: a fixed tail appended
In the case of QEKKLSFIEALIQQYQEQLNKSTK [D20N], the protein stability index is reported as 2.08. Work on QEKKLSFIEALIQQYQEQLIKSTK [D20I] yielded a protein stability index of 1.31. In the case of QEKKLSFIEALIQQYQEQLPKSTK [D20P], the protein stability index is reported as 2.46. With QEKKLSFIEALIQQYQEQLVKSTK [D20V] the protein stability index was 1.2. In the case of QEKKLSFIEALIQQYQEQLRKSTK [D20R], the protein stability index is reported as 1.77. With QEKKLSFIEALIQQYQEQLGKSTK [D20G] the protein stability index was 2.13. With QEKKLSFIEALIQQYQEQLLKSTK [D20L] the protein stability index was 1.72. For QEKKLSFIEALIQQYQEQLHKSTK [D20H], the protein stability index was 1.77. With QEKKLSFIEALIQQYQEQLCKSTK [D20C] the protein stability index was 1.69. QEKKLSFIEALIQQYQEQLFKSTK [D20F] gave a protein stability index of 1.66. For QEKKLSFIEALIQQYQEQLWKSTK [D20W], the protein stability index was 1.83. With QEKKLSFIEALIQQYQEQLQKSTK [D20Q] the protein stability index was 1.92. In the case of QEKKLSFIEALIQQYQEQLYKSTK [D20Y], the protein stability index is reported as 1.48. Work on QEKKLSFIEALIQQYQEQLTKSTK [D20T] yielded a protein stability index of 2.47. For QEKKLSFIEALIQQYQEQLAKSTK [D20A], the protein stability index was 2.5. QEKKLSFIEALIQQYQEQLMKSTK [D20M] gave a protein stability index of 2.98. Variant QEKKLSFIEALIQQYQEQLDKSYK [T23Y] has a protein stability index of 2.26. With QEKKLSFIEALIQQYQEQLDKSRK [T23R] the protein stability index was 2.66. In the case of QEKKLSFIEALIQQYQEQLDKSNK [T23N], the protein stability index is reported as 2.31. In the case of QEKKLSFIEALIQQYQEQLDKSIK [T23I], the protein stability index is reported as 1.84. Variant QEKKLSFIEALIQQYQEQLDKSAK [T23A] has a protein stability index of 2.75. Work on QEKKLSFIEALIQQYQEQLDKSMK [T23M] yielded a protein stability index of 1.92. For QEKKLSFIEALIQQYQEQLDKSSK [T23S], the protein stability index was 2.7. Variant QEKKLSFIEALIQQYQEQLDKSPK [T23P] has a protein stability index of 2.24. In the case of QEKKLSFIEALIQQYQEQLDKSVK [T23V], the protein stability index is reported as 2.67. In the case of QEKKLSFIEALIQQYQEQLDKSLK [T23L], the protein stability index is reported as 1.51. With QEKKLSFIEALIQQYQEQLDKSCK [T23C] the protein stability index was 2.72. For QEKKLSFIEALIQQYQEQLDKSEK [T23E], the protein stability index was 2.57. Variant QEKKLSFIEALIQQYQEQLDKSQK [T23Q] has a protein stability index of 2.89. In the case of QEKKLSFIEALIQQYQEQLDKSGK [T23G], the protein stability index is reported as 2.77. QEKKLSFIEALIQQYQEQLDKSWK [T23W] gave a protein stability index of 1.09. With QEKKLSFIEALIQQYQEQLDKSHK [T23H] the protein stability index was 2.53. In the case of QEKKLSFIEALIQQYQEQLDKSDK [T23D], the protein stability index is reported as 3.33. Variant QEKKLSFIEALIQQYQEQLDKSKK [T23K] has a protein stability index of 2.49. In the case of QEKKLSFIEALIQQYQEQLDKSTH [K24H], the protein stability index is reported as 2.95. QEKKLSFIEALIQQYQEQLDKSTF [K24F] showed a protein stability index of 1.71. Work on QEKKLSFIEALIQQYQEQLDKSTI [K24I] yielded a protein stability index of 1.95.
